B1: library; numbered along this chain (parent)
chain: MEVVDPQQLGMFTEGELMSVGMDTFIHRIDSTEVIYQPRRKRAKLIGKYLMGDLLGEGSYGKVKEVLDSETLCRRAVKILKKKKLRRIPNGEANVKKEIQLLRRLRHKNVIQLVDVLYNEEKQKMYMVMEYCVCGMQEMLDSVPEKRFPVCQAHGYFCQLIDGLEYLHSQGIVHKDIKPGNLLLTTGGTLKISDLGVAEALHPFAADDTCRTSQGSPAFQPPEIANGLDTFSGFKVDIWSAGVTLYNITTGLYPFEGDNIYKLFENIGKGSYAIPGDCGPPLSDLLKGMLEYEPAKRFSIRQIRQHSWFRKKHPPAEAPVPIPPSPDTKDRWRSMTVVPYLEDLHGADEDEDLFDIEDDIIYTQDFTVPGQVPEEEASHNGQRRGLPKAVCMNGTEAAQLSTKSRAEGRAPNPARKACSASSKIRRLSACKQQ

± gives the uncertainty stated by the source.

Variants of B1 are the subject of this series. The experiment in a line: STK11 functional score (HeLa growth suppression), rescaled enrichment; synonymous median = 1, nonsense median = 0 (normalised score). As to conditions: with HeLa; variant type: missense. Summed up:
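Codon-randomised (POPCode) libraries of codon-optimised STK11 were integrated by Bxb1 at an AAVS1 landing pad in HeLa, in three regions each transfected three times. Integrants (BFP-negative, mCherry-positive) were FACS-sorted 4–5 days after electroporation and grown about two weeks; tiled gDNA amplicons were sequenced on NextSeq (~2 million reads per tile). The functional score is the wild-type-corrected post/pre-selection log ratio, rescaled to synonymous and nonsense medians, merged over codons and replicate transfections, with bootstrapped error.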
In the case of MEVVDPQQLGMFTEGELMSVGMDTFIHRIDSTEVIYQPRRKRAKLIGKYLMGDLLGEGSYGKVKEVLDSETLCRRAVKILKKKKLRRIPNGEANVKKEIQLLRRLRHKNVIQLVDVLYNEEKQKMYMVMEYCVCGMQEMLDSVPEKRFPVCQAHGYFCQLIDGLEYLHSQGIVHKDIKPGNLLLTTGGTLKISDLGVAEALHPFAADDTCRTSQGSPAFQPPEIANGLDTFSGFKVDIWSAGVTLYNITTTLYPFEGDNIYKLFENIGKGSYAIPGDCGPPLSDLLKGMLEYEPAKRFSIRQIRQHSWFRKKHPPAEAPVPIPPSPDTKDRWRSMTVVPYLEDLHGADEDEDLFDIEDDIIYTQDFTVPGQVPEEEASHNGQRRGLPKAVCMNGTEAAQLSTKSRAEGRAPNPARKACSASSKIRRLSACKQQ [G251T], the STK11 functional score worked out at 1.21 ± 0.25.

As for MEVVDPQQLGMFTEGELMSVGMDTFIHRIDSTEVIYQPRRKRAKLIGKYLMGDLLGEGSYGKVKEVLDSETLCRRAVKILKKKKLRRIPNGEANVKKEIQLLRRLRHKNVIQLVDVLYNEEKQKMYMVMEYCVCGMQEMLDSVPEKRFPVCQAHGYFCQLIDGLEYLHSQGIVHKDIKPGNLLLTTGGTLKISDLGVAEALHPFAADDTCRTSQGSPAFQPPEIANGLDTFSGFKVDIWSAGVTLYNITTVLYPFEGDNIYKLFENIGKGSYAIPGDCGPPLSDLLKGMLEYEPAKRFSIRQIRQHSWFRKKHPPAEAPVPIPPSPDTKDRWRSMTVVPYLEDLHGADEDEDLFDIEDDIIYTQDFTVPGQVPEEEASHNGQRRGLPKAVCMNGTEAAQLSTKSRAEGRAPNPARKACSASSKIRRLSACKQQ [G251V], the STK11 functional score was -0.0264 ± 0.098. As for MEVVDPQQLGMFTEGELMSVGMDTFIHRIDSTEVIYQPRRKRAKLIGKYLMGDLLGEGSYGKVKEVLDSETLCRRAVKILKKKKLRRIPNGEANVKKEIQLLRRLRHKNVIQLVDVLYNEEKQKMYMVMEYCVCGMQEMLDSVPEKRFPVCQAHGYFCQLIDGLEYLHSQGIVHKDIKPGNLLLTTGGTLKISDLGVAEALHPFAADDTCRTSQGSPAFQPPEIANGLDTFSGFKVDIWSAGVTLYNITTSLYPFEGDNIYKLFENIGKGSYAIPGDCGPPLSDLLKGMLEYEPAKRFSIRQIRQHSWFRKKHPPAEAPVPIPPSPDTKDRWRSMTVVPYLEDLHGADEDEDLFDIEDDIIYTQDFTVPGQVPEEEASHNGQRRGLPKAVCMNGTEAAQLSTKSRAEGRAPNPARKACSASSKIRRLSACKQQ [G251S], the STK11 functional score is 1.01 ± 0.2. Next, MEVVDPQQLGMFTEGELMSVGMDTFIHRIDSTEVIYQPRRKRAKLIGKYLMGDLLGEGSYGKVKEVLDSETLCRRAVKILKKKKLRRIPNGEANVKKEIQLLRRLRHKNVIQLVDVLYNEEKQKMYMVMEYCVCGMQEMLDSVPEKRFPVCQAHGYFCQLIDGLEYLHSQGIVHKDIKPGNLLLTTGGTLKISDLGVAEALHPFAADDTCRTSQGSPAFQPPEIANGLDTFSGFKVDIWSAGVTLYNITTALYPFEGDNIYKLFENIGKGSYAIPGDCGPPLSDLLKGMLEYEPAKRFSIRQIRQHSWFRKKHPPAEAPVPIPPSPDTKDRWRSMTVVPYLEDLHGADEDEDLFDIEDDIIYTQDFTVPGQVPEEEASHNGQRRGLPKAVCMNGTEAAQLSTKSRAEGRAPNPARKACSASSKIRRLSACKQQ [G251A]: 0.598 ± 0.42; MEVVDPQQLGMFTEGELMSVGMDTFIHRIDSTEVIYQPRRKRAKLIGKYLMGDLLGEGSYGKVKEVLDSETLCRRAVKILKKKKLRRIPNGEANVKKEIQLLRRLRHKNVIQLVDVLYNEEKQKMYMVMEYCVCGMQEMLDSVPEKRFPVCQAHGYFCQLIDGLEYLHSQGIVHKDIKPGNLLLTTGGTLKISDLGVAEALHPFAADDTCRTSQGSPAFQPPEIANGLDTFSGFKVDIWSAGVTLYNITTLLYPFEGDNIYKLFENIGKGSYAIPGDCGPPLSDLLKGMLEYEPAKRFSIRQIRQHSWFRKKHPPAEAPVPIPPSPDTKDRWRSMTVVPYLEDLHGADEDEDLFDIEDDIIYTQDFTVPGQVPEEEASHNGQRRGLPKAVCMNGTEAAQLSTKSRAEGRAPNPARKACSASSKIRRLSACKQQ [G251L]: -0.144 ± 0.1; MEVVDPQQLGMFTEGELMSVGMDTFIHRIDSTEVIYQPRRKRAKLIGKYLMGDLLGEGSYGKVKEVLDSETLCRRAVKILKKKKLRRIPNGEANVKKEIQLLRRLRHKNVIQLVDVLYNEEKQKMYMVMEYCVCGMQEMLDSVPEKRFPVCQAHGYFCQLIDGLEYLHSQGIVHKDIKPGNLLLTTGGTLKISDLGVAEALHPFAADDTCRTSQGSPAFQPPEIANGLDTFSGFKVDIWSAGVTLYNITTCLYPFEGDNIYKLFENIGKGSYAIPGDCGPPLSDLLKGMLEYEPAKRFSIRQIRQHSWFRKKHPPAEAPVPIPPSPDTKDRWRSMTVVPYLEDLHGADEDEDLFDIEDDIIYTQDFTVPGQVPEEEASHNGQRRGLPKAVCMNGTEAAQLSTKSRAEGRAPNPARKACSASSKIRRLSACKQQ [G251C]: -0.00733 ± 0.1. Next, MEVVDPQQLGMFTEGELMSVGMDTFIHRIDSTEVIYQPRRKRAKLIGKYLMGDLLGEGSYGKVKEVLDSETLCRRAVKILKKKKLRRIPNGEANVKKEIQLLRRLRHKNVIQLVDVLYNEEKQKMYMVMEYCVCGMQEMLDSVPEKRFPVCQAHGYFCQLIDGLEYLHSQGIVHKDIKPGNLLLTTGGTLKISDLGVAEALHPFAADDTCRTSQGSPAFQPPEIANGLDTFSGFKVDIWSAGVTLYNITTILYPFEGDNIYKLFENIGKGSYAIPGDCGPPLSDLLKGMLEYEPAKRFSIRQIRQHSWFRKKHPPAEAPVPIPPSPDTKDRWRSMTVVPYLEDLHGADEDEDLFDIEDDIIYTQDFTVPGQVPEEEASHNGQRRGLPKAVCMNGTEAAQLSTKSRAEGRAPNPARKACSASSKIRRLSACKQQ [G251I]: 0.422 ± 0.25; MEVVDPQQLGMFTEGELMSVGMDTFIHRIDSTEVIYQPRRKRAKLIGKYLMGDLLGEGSYGKVKEVLDSETLCRRAVKILKKKKLRRIPNGEANVKKEIQLLRRLRHKNVIQLVDVLYNEEKQKMYMVMEYCVCGMQEMLDSVPEKRFPVCQAHGYFCQLIDGLEYLHSQGIVHKDIKPGNLLLTTGGTLKISDLGVAEALHPFAADDTCRTSQGSPAFQPPEIANGLDTFSGFKVDIWSAGVTLYNITTFLYPFEGDNIYKLFENIGKGSYAIPGDCGPPLSDLLKGMLEYEPAKRFSIRQIRQHSWFRKKHPPAEAPVPIPPSPDTKDRWRSMTVVPYLEDLHGADEDEDLFDIEDDIIYTQDFTVPGQVPEEEASHNGQRRGLPKAVCMNGTEAAQLSTKSRAEGRAPNPARKACSASSKIRRLSACKQQ [G251F]: 0.127 ± 0.13; MEVVDPQQLGMFTEGELMSVGMDTFIHRIDSTEVIYQPRRKRAKLIGKYLMGDLLGEGSYGKVKEVLDSETLCRRAVKILKKKKLRRIPNGEANVKKEIQLLRRLRHKNVIQLVDVLYNEEKQKMYMVMEYCVCGMQEMLDSVPEKRFPVCQAHGYFCQLIDGLEYLHSQGIVHKDIKPGNLLLTTGGTLKISDLGVAEALHPFAADDTCRTSQGSPAFQPPEIANGLDTFSGFKVDIWSAGVTLYNITTELYPFEGDNIYKLFENIGKGSYAIPGDCGPPLSDLLKGMLEYEPAKRFSIRQIRQHSWFRKKHPPAEAPVPIPPSPDTKDRWRSMTVVPYLEDLHGADEDEDLFDIEDDIIYTQDFTVPGQVPEEEASHNGQRRGLPKAVCMNGTEAAQLSTKSRAEGRAPNPARKACSASSKIRRLSACKQQ [G251E]: 0.412 ± 0.098. Next, MEVVDPQQLGMFTEGELMSVGMDTFIHRIDSTEVIYQPRRKRAKLIGKYLMGDLLGEGSYGKVKEVLDSETLCRRAVKILKKKKLRRIPNGEANVKKEIQLLRRLRHKNVIQLVDVLYNEEKQKMYMVMEYCVCGMQEMLDSVPEKRFPVCQAHGYFCQLIDGLEYLHSQGIVHKDIKPGNLLLTTGGTLKISDLGVAEALHPFAADDTCRTSQGSPAFQPPEIANGLDTFSGFKVDIWSAGVTLYNITTDLYPFEGDNIYKLFENIGKGSYAIPGDCGPPLSDLLKGMLEYEPAKRFSIRQIRQHSWFRKKHPPAEAPVPIPPSPDTKDRWRSMTVVPYLEDLHGADEDEDLFDIEDDIIYTQDFTVPGQVPEEEASHNGQRRGLPKAVCMNGTEAAQLSTKSRAEGRAPNPARKACSASSKIRRLSACKQQ [G251D]: 0.751 ± 0.47. Regarding MEVVDPQQLGMFTEGELMSVGMDTFIHRIDSTEVIYQPRRKRAKLIGKYLMGDLLGEGSYGKVKEVLDSETLCRRAVKILKKKKLRRIPNGEANVKKEIQLLRRLRHKNVIQLVDVLYNEEKQKMYMVMEYCVCGMQEMLDSVPEKRFPVCQAHGYFCQLIDGLEYLHSQGIVHKDIKPGNLLLTTGGTLKISDLGVAEALHPFAADDTCRTSQGSPAFQPPEIANGLDTFSGFKVDIWSAGVTLYNITTPLYPFEGDNIYKLFENIGKGSYAIPGDCGPPLSDLLKGMLEYEPAKRFSIRQIRQHSWFRKKHPPAEAPVPIPPSPDTKDRWRSMTVVPYLEDLHGADEDEDLFDIEDDIIYTQDFTVPGQVPEEEASHNGQRRGLPKAVCMNGTEAAQLSTKSRAEGRAPNPARKACSASSKIRRLSACKQQ [G251P], the STK11 functional score was determined as 0.0226 ± 0.16. Next, MEVVDPQQLGMFTEGELMSVGMDTFIHRIDSTEVIYQPRRKRAKLIGKYLMGDLLGEGSYGKVKEVLDSETLCRRAVKILKKKKLRRIPNGEANVKKEIQLLRRLRHKNVIQLVDVLYNEEKQKMYMVMEYCVCGMQEMLDSVPEKRFPVCQAHGYFCQLIDGLEYLHSQGIVHKDIKPGNLLLTTGGTLKISDLGVAEALHPFAADDTCRTSQGSPAFQPPEIANGLDTFSGFKVDIWSAGVTLYNITTWLYPFEGDNIYKLFENIGKGSYAIPGDCGPPLSDLLKGMLEYEPAKRFSIRQIRQHSWFRKKHPPAEAPVPIPPSPDTKDRWRSMTVVPYLEDLHGADEDEDLFDIEDDIIYTQDFTVPGQVPEEEASHNGQRRGLPKAVCMNGTEAAQLSTKSRAEGRAPNPARKACSASSKIRRLSACKQQ [G251W]: -0.00281 ± 0.1.

On to MEVVDPQQLGMFTEGELMSVGMDTFIHRIDSTEVIYQPRRKRAKLIGKYLMGDLLGEGSYGKVKEVLDSETLCRRAVKILKKKKLRRIPNGEANVKKEIQLLRRLRHKNVIQLVDVLYNEEKQKMYMVMEYCVCGMQEMLDSVPEKRFPVCQAHGYFCQLIDGLEYLHSQGIVHKDIKPGNLLLTTGGTLKISDLGVAEALHPFAADDTCRTSQGSPAFQPPEIANGLDTFSGFKVDIWSAGVTLYNITTRLYPFEGDNIYKLFENIGKGSYAIPGDCGPPLSDLLKGMLEYEPAKRFSIRQIRQHSWFRKKHPPAEAPVPIPPSPDTKDRWRSMTVVPYLEDLHGADEDEDLFDIEDDIIYTQDFTVPGQVPEEEASHNGQRRGLPKAVCMNGTEAAQLSTKSRAEGRAPNPARKACSASSKIRRLSACKQQ [G251R], for which the STK11 functional score was determined as 0.411 ± 0.19.

With MEVVDPQQLGMFTEGELMSVGMDTFIHRIDSTEVIYQPRRKRAKLIGKYLMGDLLGEGSYGKVKEVLDSETLCRRAVKILKKKKLRRIPNGEANVKKEIQLLRRLRHKNVIQLVDVLYNEEKQKMYMVMEYCVCGMQEMLDSVPEKRFPVCQAHGYFCQLIDGLEYLHSQGIVHKDIKPGNLLLTTGGTLKISDLGVAEALHPFAADDTCRTSQGSPAFQPPEIANGLDTFSGFKVDIWSAGVTLYNITYGLYPFEGDNIYKLFENIGKGSYAIPGDCGPPLSDLLKGMLEYEPAKRFSIRQIRQHSWFRKKHPPAEAPVPIPPSPDTKDRWRSMTVVPYLEDLHGADEDEDLFDIEDDIIYTQDFTVPGQVPEEEASHNGQRRGLPKAVCMNGTEAAQLSTKSRAEGRAPNPARKACSASSKIRRLSACKQQ [T250Y], the STK11 functional score was found to be 1.31 ± 0.65.

The record behind these values is the supplement of paper PMC12338614.
